The RNAGym collection of RNA variant scans (doi:10.7554/elife.90254)

B1: LINE1-full (parent)
chain: UACGUAGGUGGUUUUCCCCUGAUAGUGCUAAGGGGGCCUGGAAGUUUGGACUGGGCAGAGCUCAACACAGCGUGGCAAAGUGGCUGUGGCUAGACUGCCUCUCUGGAUUCCUCGUCACUCAGCAGGGCAUCUCUGAGAGAAAUGCC

Variants of: B1
Assay: self-cleavage, relative activity (ratio to wild type); higher = more cleavage; in vitro, sequencing; the parent is a self-cleaving ribozyme

Point of comparison: U13C A138C, self-cleavage 1.13. Against it:
- G55U A117G — lower, 0.3
- U62C U96G — lower, 0
- A78U G89C — lower, 0.08
- U52A A78U — higher, 2.37
- G4A A94G — lower, 0.21
- U9C U46A — higher, 1.18
- A6G A42G — higher, 1.15
- U26A U47G — higher, 1.6
- A69C U130C — lower, 0.36
- U9C C84A — lower, 0.26
- U20A U46C — higher, 1.49
- U87A U108C — lower, 0.11
- U39A U62G — lower, 0.04
- A31U A136U — lower, 0.55
- A6G G11C — lower, 0.31
- A69U G114U — lower, 0.06
- A77G U119G — higher, 1.39
- C3U C118U — higher, 1.25
- A67C G82A — lower, 0.05
- U96C A124U — lower, 0.14
- U12G A129G — higher, 1.14
- G72A A121G — lower, 1.02
- G97A A140G — lower, 0.11
- G4A U39C — higher, 1.31
- U87A G106A — lower, 0.06
- U23A U108C — higher, 1.45
- U62C A107G — lower, 0.06
- U91C A117U — lower, 0.92
- A30U C56A — lower, 0.09
- G72U C145G — lower, 0.94
- G7A U130C — lower, 0.94
- A67G C113A — lower, 0.45
- A79G U115C — higher, 1.32
- U14C G86U — lower, 0.08
- A121C C146U — higher, 1.77
- U47A U109A — higher, 1.74
- G82A G105A — higher, 1.95
- U73G A77U — higher, 1.14
- U39A A43C — lower, 0.66
- G125U U132C — higher, 1.47
- C18U C113U — lower, 0.75
- A69G C118A — lower, 0.51
- U5A G125U — lower, 0.15
- A43G G86U — lower, 0.03
- C3A C98A — lower, 0.28
- C18U U39C — lower, 0.82
- G80C U108C — lower, 0
- G36C U47C — lower, 0.92
- U73C A121U — higher, 1.89
- A129G A138G — higher, 1.44
- A50G U81C — lower, 0.7
- A59U A67G — lower, 0.39
- A6U U62A — lower, 0.06
- A6G A138G — lower, 1.11
- A2G C84A — lower, 0.26
- A50C A121G — higher, 2.3
- A79U G135C — higher, 2.76
- U39A U87A — lower, 0.07
- U104A A140U — lower, 1.03
- U46A A69G — lower, 0.36
- U52A U130G — higher, 1.24
- U29G U96A — lower, 0.06
- U29G U96C — lower, 0.67
- U46C C76U — higher, 2.44
- A67G A142G — lower, 0.46
- A43G C113U — lower, 1.12
- A42C A107U — lower, 1.04
- U5C U52C — higher, 1.23
- U13C U23C — lower, 0.41
- A94G C128U — lower, 0.22
- A43U U46A — higher, 1.24
- A59G U130A — lower, 0.1
- A69G G74A — lower, 0.49
- U20C A92G — lower, 0.08
- U134A — lower, 0.98
- A77G C98U — lower, 0.54
- C101U A141G — higher, 2
- G122A A140G — lower, 0.53
- A50G A79G — lower, 1
- C99U A141C — lower, 0.55
- U26A U45G — lower, 0.6
- U45C G93U — lower, 0.03
- U81C G127U — higher, 1.22
- U39A G70U — lower, 0.05
- C17A U45C — higher, 1.35
- A65G A92C — lower, 0
- G80A A124G — lower, 1
- A22G C84U — lower, 0.24
- U45C A65U — lower, 0.22
- G49A U143G — lower, 1.1
- U100C A140U — higher, 1.82
- U20G U85G — lower, 0.1
- C3U G127A — lower, 0.89
- A22G U26C — lower, 0.83
- U47A U104A — lower, 0.59
- C3U A129G — higher, 1.62
- C68U U81A — lower, 0.18
- A59G U73G — lower, 0.12
- G35A U119C — higher, 1.3
- U13A A78U — higher, 1.52
- A43U U81C — higher, 1.26
- A6U U12A — lower, 0.84
- A22G C38U — higher, 1.95
- U91A A124G — lower, 0.33
- A65G C95A — lower, 0.04
- U85C G139U — lower, 0.22
- G41A U143G — lower, 1.11
- A6U U52C — lower, 1.02
- A22U U109C — lower, 0.91
- A22U U109A — higher, 1.34
- U52A U73A — higher, 1.63
- A117G A140G — higher, 1.48
- G33A U119C — lower, 0.66
- G105A — higher, 1.43
- G36C A141G — higher, 1.36
- U5C A57U — lower, 0.29
- U13A U62C — lower, 0.03
- A42G A69G — lower, 0.54
- A59G U104G — lower, 0.08
- U23A U134G — lower, 0.89
- U12G U23A — lower, 0.85
- G55A U81A — lower, 0.08
- A2U A141G — lower, 1
- U46A U130G — higher, 1.39
- A22G U73C — higher, 1.37
- A79G C133A — lower, 1.12
- U26G G55A — lower, 0.21
- U115C U119C — higher, 2.04
- A79U U132C — higher, 2.24
- U23C A42C — lower, 0
- U5C U132A — higher, 1.98
- A43G A138G — higher, 1.34
- A140U U143A — higher, 1.41
- G7U U112C — higher, 1.15
- U47G A77U — lower, 0.94
- U119C U143C — higher, 1.49
- A50G A67U — lower, 0.1
- G32A U104A — higher, 1.17
- U14C U47G — higher, 1.4
- A42G U134A — lower, 0.93
- U13C A77C — higher, 1.15
- U23C U112C — higher, 1.57
- U1C A64U — lower, 0.29
- A42U U119C — higher, 1.73
- C3A U115C — higher, 1.22
- U12A U15C — lower, 0.92
- C116A U119C — higher, 1.27
- U12C A121U — lower, 1.11
- U45C A141U — higher, 1.79
- A121G C146U — higher, 1.39
- G36A A77G — higher, 1.35
- U9C A142U — higher, 1.38
- U73C U109C — lower, 0.31
- A57U A141G — lower, 0.11
- A59G A67U — lower, 0.06
- U112C A138U — higher, 1.23
- U12A U39C — higher, 1.17
- A6U U26C — lower, 0.94
- U47A A117U — higher, 1.25
- U47A A117C — higher, 1.32
- A57U C120A — lower, 0.05
- G11A U13C — lower, 0.51
- A79G G93A — lower, 0.04
- U73C A129C — higher, 1.36
- A59G G114U — lower, 0.07
- A24U G49A — higher, 1.39
